The target in the assay is T1, Hop2-R176A–Mnd1 mutant complex (mouse, UniProt O35047 1-217; Q8K396 1-205, R176A).
T1 sequence 1: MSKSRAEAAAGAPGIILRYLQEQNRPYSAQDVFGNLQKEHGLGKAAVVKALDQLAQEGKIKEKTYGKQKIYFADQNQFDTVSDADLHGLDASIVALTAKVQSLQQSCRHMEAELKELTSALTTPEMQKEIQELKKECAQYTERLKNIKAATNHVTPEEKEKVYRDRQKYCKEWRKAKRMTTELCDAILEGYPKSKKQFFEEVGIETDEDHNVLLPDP
T1 sequence 2: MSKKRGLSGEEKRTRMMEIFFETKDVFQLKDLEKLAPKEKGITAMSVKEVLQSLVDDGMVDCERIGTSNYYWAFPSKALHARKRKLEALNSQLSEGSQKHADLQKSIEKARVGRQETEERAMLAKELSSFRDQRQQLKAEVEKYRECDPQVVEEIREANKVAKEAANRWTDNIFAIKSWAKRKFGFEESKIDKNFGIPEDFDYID
Put plainly: pull-down.

B1: Human DMC1 (natural protein)
chain: MKEDQVVAEEPGFQDEEESLFQDIDLLQKHGINVADIKKLKSVGICTIKGIQMTTRRALCNVKGLSEAKVDKIKEAANKLIEPGFLTAFEYSEKRKMVFHITTGSQEFDKLLGGGIESMAITEAFGEFRTGKTQLSHTLCVTAQLPGAGGYPGGKIIFIDTENTFRPDRLRDIADRFNVDHDAVLDNVLYARAYTSEHQMELLDYVAAKFHEEAGIFKLLIIDSIMALFRVDFSGRGELAERQQKLAQMLSRLQKISEEYNVAVFVTNQMTADPGATMTFQADPKKPIGGHILAHASTTRISLRKGRGELRIAKIYDSPEMPENEATFAITAGGIGDAKE
In the case of B1, the binding result was “binds”.

Values taken from article PMC3902922 (Nucleic Acids Research, 2013).
